Data taken from the supplement of paper PMC10126150.
± gives the standard deviation of the averaged measurements.

Test system: ATP
Assay: switch fluorescence ratio, 500 uM ATP over buffer (Cy3 cluster intensity, sum of 5 cycles each) (fold (ratio)); higher = stronger signal-on switching upon ATP binding; sequences stand for … in TCGTCGGCAGCGTCAGATGTGTATAAGAGACAGTTTTTTTTTTTTTTTTTTTTTTTTT…TC
Details: aptamer strand: ATP DNA aptamer (quencher-CACCTGGGGGAGTATTGCGGAGGAAGG + anchor), 100 nM annealed; ATP concentration: 500 uM
Outline: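 For every switch-domain sequence, the fluorescence ratio is the mean of per-cluster values, each being summed target-cycle Cy3 intensity over summed buffer-cycle Cy3 intensity. Clusters outside 100-1000 RFU were excluded. On a modified Illumina MiSeq flow-cell, the Cy3-labelled switching-strand clusters were annealed to 100 nM quencher-labelled ATP aptamer, imaged in selection buffer and then after 15 min with 500 uM ATP at 22 °C. Five such cycles were run, with NaOH stripping and re-annealing between them.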
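Also: ATP exposure 15 min at 22 °C before imaging.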

TTCTTATGAT showed a switch fluorescence ratio of 0.9721 ± 0.0011.

For GTGTGATGTT, the switch fluorescence ratio was 0.99 ± 0.042.

With GCCCACGGGA the switch fluorescence ratio was 1.07 ± 0.039.

Sequence TTTTTCGCTT has a switch fluorescence ratio of 1.06 ± 0.077.

TTCTGGTTTG gave a switch fluorescence ratio of 0.975 ± 0.043.

With TATACGTGGC the switch fluorescence ratio was 0.939 ± 0.03.

ATCACACATT gave a switch fluorescence ratio of 1.02 ± 0.032.

ACTGGGGGGT was tested, and the switch fluorescence ratio was 0.994 ± 0.02.

Work on GCCGGTTTTC yielded a switch fluorescence ratio of 1.03 ± 0.044.

GGGGATTATG gave a switch fluorescence ratio of 0.997 ± 0.046.

In the case of TTATAGGGCC, the switch fluorescence ratio is reported as 1 ± 0.025.

CACTGGACGG showed a switch fluorescence ratio of 1.28 ± 0.049.

With GGAGACGTTA the switch fluorescence ratio was 1.02 ± 0.052.

With GACATGGTTA the switch fluorescence ratio was 1.02 ± 0.051.

GGTTAGGGGA gave a switch fluorescence ratio of 0.994 ± 0.036.

For CTCGAAGCG, the switch fluorescence ratio was 1.04 ± 0.034.

Work on TTCATGGTGG yielded a switch fluorescence ratio of 1.01 ± 0.052.

With ATTAGTAG the switch fluorescence ratio was 1.022 ± 0.0095.

With AAAGCCCGCG the switch fluorescence ratio was 0.961 ± 0.066.

With CTATGTATTT the switch fluorescence ratio was 1.002 ± 0.0011.

Sequence GGGATAGAGG has a switch fluorescence ratio of 0.999 ± 0.051.

In the case of AGAGGGGAT, the switch fluorescence ratio is reported as 1 ± 0.021.

ATGATCTCGT gave a switch fluorescence ratio of 0.968 ± 0.032.

For GCGCGCTAAG, the switch fluorescence ratio was 0.977 ± 0.035.

For ATTAGGGGCC, the switch fluorescence ratio was 0.976 ± 0.018.

Work on GGGATGGTGG yielded a switch fluorescence ratio of 0.991 ± 0.024.

With TGGGACGTTA the switch fluorescence ratio was 1.04 ± 0.036.

Work on CTGTGTAGTG yielded a switch fluorescence ratio of 0.9954 ± 0.002.

GATTTTCGTC was tested, and the switch fluorescence ratio was 0.996 ± 0.032.

TTATTAATGT showed a switch fluorescence ratio of 1.02 ± 0.021.

GCATGATGCG showed a switch fluorescence ratio of 0.994 ± 0.013.

GACGAGGGGG showed a switch fluorescence ratio of 0.949 ± 0.11.

CGGGAAAATA showed a switch fluorescence ratio of 1.03 ± 0.014.

GGGTTGTTAG showed a switch fluorescence ratio of 0.996 ± 0.027.

TTTGTTTTAC showed a switch fluorescence ratio of 1.18 ± 0.21.

GGGGGTGTAG showed a switch fluorescence ratio of 1.008 ± 0.0053.

Sequence CTAATGGGAG has a switch fluorescence ratio of 0.9726 ± 0.0092.

Work on TCTGTGGCCC yielded a switch fluorescence ratio of 1.01 ± 0.028.

TCGAGGGCGG showed a switch fluorescence ratio of 0.98 ± 0.032.

For GGGGTCACTA, the switch fluorescence ratio was 0.9559 ± 0.009.

In the case of TAAGAGAGAA, the switch fluorescence ratio is reported as 0.986 ± 0.021.

With TACGTCGCTG the switch fluorescence ratio was 0.971 ± 0.023.

With ACGCATTATT the switch fluorescence ratio was 1.62 ± 0.051.

TCGAGGAATC gave a switch fluorescence ratio of 1.075 ± 0.0094.

For TTCCCGCTGT, the switch fluorescence ratio was 1.75 ± 0.023.

GCAGAGTGTT showed a switch fluorescence ratio of 1.02 ± 0.027.

GGGGGAGGTA showed a switch fluorescence ratio of 0.977 ± 0.031.

Sequence TTTTTTCGGC has a switch fluorescence ratio of 0.988 ± 0.022.

Sequence ACATGAGGGA has a switch fluorescence ratio of 1.02 ± 0.067.

In the case of CGAACGGGGA, the switch fluorescence ratio is reported as 1.16 ± 0.049.

With TTTACGGGGG the switch fluorescence ratio was 1 ± 0.043.

Sequence CGGAACTGGT has a switch fluorescence ratio of 1.04 ± 0.058.

In the case of TTTTTCTTTG, the switch fluorescence ratio is reported as 1.04 ± 0.065.

For CGGGGGGAAG, the switch fluorescence ratio was 1.01 ± 0.029.

For GATCTATTTT, the switch fluorescence ratio was 1.01 ± 0.018.

Sequence TGGTAAATCT has a switch fluorescence ratio of 1 ± 0.036.

For TTTTGAATTG, the switch fluorescence ratio was 0.9841 ± 0.005.

Sequence GTGGGGAGTG has a switch fluorescence ratio of 1.01 ± 0.045.

In the case of AACTAGTGGG, the switch fluorescence ratio is reported as 1.02 ± 0.024.

In the case of TCGATTCGGT, the switch fluorescence ratio is reported as 1.02 ± 0.026.

For GTGCTGGTGG, the switch fluorescence ratio was 0.9839 ± 0.0043.

For TGAGGGGATC, the switch fluorescence ratio was 1.02 ± 0.015.

TATATTCTTT gave a switch fluorescence ratio of 1 ± 0.023.

Work on CGTACGAATG yielded a switch fluorescence ratio of 0.9769 ± 0.007.

In the case of TAAGTAAATA, the switch fluorescence ratio is reported as 0.9762 ± 0.004.

TCAGTAATGA showed a switch fluorescence ratio of 1.0075 ± 7.1e-05.

CAACGCGCGG showed a switch fluorescence ratio of 0.995 ± 0.045.

With AGGAGTGTCA the switch fluorescence ratio was 0.965 ± 0.013.

TGTTGAGGCG was tested, and the switch fluorescence ratio was 0.981 ± 0.015.

CGTGTTGTAG showed a switch fluorescence ratio of 1.02 ± 0.017.

Sequence TGGGAAAAAT has a switch fluorescence ratio of 0.994 ± 0.04.

In the case of AAGTCGTCCG, the switch fluorescence ratio is reported as 0.985 ± 0.044.

TTTAGAACGA was tested, and the switch fluorescence ratio was 1.01 ± 0.025.

With AAAACAAGGA the switch fluorescence ratio was 1.01 ± 0.041.

In the case of CTTAGTACGG, the switch fluorescence ratio is reported as 1.01 ± 0.054.

For CTTTTTTTGG, the switch fluorescence ratio was 1 ± 0.022.

Sequence CTCACCATGA has a switch fluorescence ratio of 1.03 ± 0.035.

GGGGATTTTG gave a switch fluorescence ratio of 0.9746 ± 0.0022.

AGTAGCAAGC gave a switch fluorescence ratio of 3.3 ± 0.17.

With CAGGCTTTTA the switch fluorescence ratio was 0.983 ± 0.028.

With GACGGGGGTG the switch fluorescence ratio was 1.01 ± 0.023.

GATGGCGTAT showed a switch fluorescence ratio of 0.98 ± 0.031.

Sequence CATAGGATTG has a switch fluorescence ratio of 1.0163 ± 0.00094.

With GAAGTAGGAG the switch fluorescence ratio was 1.01 ± 0.032.

With ACGAAGAAGT the switch fluorescence ratio was 1.012 ± 0.0048.

With CAGTATTAGA the switch fluorescence ratio was 1.003 ± 0.0037.

With TCCAAGACGA the switch fluorescence ratio was 1.34 ± 0.23.

In the case of TATAGGGGTC, the switch fluorescence ratio is reported as 0.968 ± 0.014.

GTGAGTACTT gave a switch fluorescence ratio of 1.03 ± 0.014.

TAGGGGTACA showed a switch fluorescence ratio of 1.03 ± 0.016.

Work on GAGAGTTGCG yielded a switch fluorescence ratio of 1.04 ± 0.027.

ATTAGGAAAA gave a switch fluorescence ratio of 1.02 ± 0.025.

GATTGATTTA showed a switch fluorescence ratio of 1 ± 0.021.

In the case of TTTACGGAGC, the switch fluorescence ratio is reported as 1.37 ± 0.075.

GAGTTAGGGG showed a switch fluorescence ratio of 0.998 ± 0.018.

GGATGTATCT was tested, and the switch fluorescence ratio was 0.995 ± 0.012.

Work on AAGTTGCACC yielded a switch fluorescence ratio of 1 ± 0.067.

Work on CATGGAGCGA yielded a switch fluorescence ratio of 1.24 ± 0.064.

Work on TTTCGGGACC yielded a switch fluorescence ratio of 1.04 ± 0.031.

For CCAAATTGTG, the switch fluorescence ratio was 1.03 ± 0.03.

GGGAATACTA gave a switch fluorescence ratio of 1.38 ± 0.37.

In the case of TGACTTTGTG, the switch fluorescence ratio is reported as 1.02 ± 0.044.

CGTCGGGGTG gave a switch fluorescence ratio of 1 ± 0.017.

AGTGTTCTCG showed a switch fluorescence ratio of 0.983 ± 0.017.

CCTGGGCCGC was tested, and the switch fluorescence ratio was 1.65 ± 0.081.

In the case of TCAATTCTAC, the switch fluorescence ratio is reported as 1.02 ± 0.041.

GGGTAGAGTT was tested, and the switch fluorescence ratio was 0.9659 ± 0.0052.

In the case of GGGAAGTCGT, the switch fluorescence ratio is reported as 0.964 ± 0.039.

In the case of GGATTTGGAG, the switch fluorescence ratio is reported as 0.993 ± 0.024.

GACGATGTAA gave a switch fluorescence ratio of 1.18 ± 0.018.

In the case of TAAAAAATTC, the switch fluorescence ratio is reported as 1.03 ± 0.04.

Sequence CTACCGCCTA has a switch fluorescence ratio of 1.39 ± 0.048.

CGCATGTCTC was tested, and the switch fluorescence ratio was 1.81 ± 0.11.

TAGAAGGGGC showed a switch fluorescence ratio of 0.989 ± 0.067.

AGCGAACGGG showed a switch fluorescence ratio of 1.05 ± 0.025.

With GGGGATAAGA the switch fluorescence ratio was 0.985 ± 0.036.

Work on ACCGACCGGG yielded a switch fluorescence ratio of 1.074 ± 0.005.

GGTGGGCGGG was tested, and the switch fluorescence ratio was 1.01 ± 0.016.

In the case of TGCTGGTCTC, the switch fluorescence ratio is reported as 1 ± 0.015.

Work on GTTCACTACC yielded a switch fluorescence ratio of 1.15 ± 0.0083.

GAGGTATGGG gave a switch fluorescence ratio of 0.9761 ± 0.0077.

For AAACCCTGAG, the switch fluorescence ratio was 1.14 ± 0.2.

For GGTAGTTGTG, the switch fluorescence ratio was 0.982 ± 0.013.

ACGGCACTCG gave a switch fluorescence ratio of 1.4 ± 0.1.

CGGGTCGGGC gave a switch fluorescence ratio of 0.991 ± 0.013.

In the case of TCCTACTACG, the switch fluorescence ratio is reported as 1.08 ± 0.026.

Work on GGACGGGGTT yielded a switch fluorescence ratio of 0.97 ± 0.019.

With TTAAGGCTTA the switch fluorescence ratio was 1.01 ± 0.044.

TTATACCAAG was tested, and the switch fluorescence ratio was 1.03 ± 0.023.

In the case of TGAGTGGGGC, the switch fluorescence ratio is reported as 1.03 ± 0.025.

ACTTACGGGC showed a switch fluorescence ratio of 1.513 ± 0.0058.

With GCAATCGGAG the switch fluorescence ratio was 1.27 ± 0.025.

Sequence GCGGGAATGG has a switch fluorescence ratio of 1.02 ± 0.0037.

With TACTTTGTC the switch fluorescence ratio was 1.03 ± 0.021.

GTTGTAAAGT showed a switch fluorescence ratio of 1.03 ± 0.036.

Work on AATGTTACGG yielded a switch fluorescence ratio of 1.061 ± 0.0098.

In the case of TTTTCTTTGC, the switch fluorescence ratio is reported as 1.03 ± 0.042.

TTCTCTATGT was tested, and the switch fluorescence ratio was 1.01 ± 0.035.

GGAGAGGGGG gave a switch fluorescence ratio of 0.982 ± 0.027.

Sequence CGCTAGGGAC has a switch fluorescence ratio of 1.314 ± 0.003.

With AAGAGGCCCC the switch fluorescence ratio was 0.9991 ± 0.0067.

In the case of CGGGCTGGAG, the switch fluorescence ratio is reported as 1.09 ± 0.079.

In the case of TTATTCGGGG, the switch fluorescence ratio is reported as 0.968 ± 0.054.

TACGTCTTAG gave a switch fluorescence ratio of 0.972 ± 0.048.

AAGGATGTTT gave a switch fluorescence ratio of 0.9824 ± 0.0033.

TTATATTTGA was tested, and the switch fluorescence ratio was 0.98 ± 0.015.

Work on TAAGTGGGGT yielded a switch fluorescence ratio of 0.979 ± 0.026.

TTTAGATCAA was tested, and the switch fluorescence ratio was 1 ± 0.0019.

GACGGGATCT gave a switch fluorescence ratio of 1.042 ± 0.0092.

With TATCTGTATA the switch fluorescence ratio was 1.11 ± 0.17.

Sequence GGAATTTAAT has a switch fluorescence ratio of 0.998 ± 0.0014.

In the case of TTGATAGTCG, the switch fluorescence ratio is reported as 0.969 ± 0.024.

Sequence TAGGACACGT has a switch fluorescence ratio of 1.03 ± 0.012.

TTTAACGTAC was tested, and the switch fluorescence ratio was 1.83 ± 0.15.

For TCCGCTTGA, the switch fluorescence ratio was 1.58 ± 0.047.

GTGGGGGG gave a switch fluorescence ratio of 0.999 ± 0.029.

In the case of CGATGGAATC, the switch fluorescence ratio is reported as 1.69 ± 0.042.
